Test results from the nanobody polyreactivity screen of Harvey et al. (2022).

test: yeast display, Sf9 membrane polyspecificity reagent, FACS + sequencing; frameworks hold sequencing errors
Outline: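 Galactose induction of a Saccharomyces cerevisiae BJ5465 synthetic nanobody display library ran 36–48 hours. The cells were then stained for 1 hour at 4 °C with 10% biotinylated, detergent-solubilized Sf9 membrane reagent, pulled down on streptavidin microbeads and FACS-sorted into low and high (top ~1%) gates on expression and reagent-binding fluorescence. Labels for polyreactivity follow the gate of origin.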

Row | Sequence | polyreactivity (PSR sort gate)
1 | QVQLVESGGGLVQAGGSLRLSCAASGRTNWTYVMGWYRQAPGKERELVAAISRSGSSTYYADSVKGRFTISRDNAKNTVYLQMNSLKPEDTAVYYCNNVDGTTLDDHYMDYWGQGTQVTVSS | low polyreactivity
2 | QVQLVESGGGLVQAGGSLRLSCAASGSIFPYYAMGWYRQAPGKERELVAAITYIGGDTYYADSVKGRFTISRDNAKNTVYLQMNSLKPEDTAVYYCAAELSWRQYDYEYWGQGTQVTVSS | low polyreactivity
3 | QVQLVESGGGLVQAGGSLRLSCAASGRIVSKYALGWYRQAPGKERELVAAISNGGSTNYADSVKGRFTISRDNAKNTVYLQMNSRKPEDTAVYYCAAGWPARYEEGYNYWGQGTQVTVST | low polyreactivity
4 | QVQLVESGGGLVQAGGSLRLSCAASGSTFGTNAMGWYRQAPGKEREFVASISVSGGSTYYADSVKGRFTISRDNAKNTVYLQMNSLKPEDTAVYYCNRRAYRRYQFGYWGQGTQVTVSS | high polyreactivity
5 | QVQLVDSGGGLVQAGGSLRLSCAASGLTIYAYAMGWYRQAPGKERELVAAISSGGSTSYADSVKGRFTISRDNAKNTVYLQMNSLKPEDTAVYYCAARPKSSRFFGWGYNYWGQGTQVTVSS | high polyreactivity
6 | QVQLVESGGGLVQAGGSLRLSCAASGSIFAVYAMGWYRQAPGKERELVASISRTGTTNYADSVKGRFTISRDNAKNTVYLQMNSLKPEDTAVYYCNADAYLYYKYHWGFTFYQYEYWGQGTQVTVSS | low polyreactivity
7 | QVQLVDSGGGLVQAGGSLRLSCAASGSIFHANAMGWYRQAPGKERELVAVISQGGGSTYYADSVKGRFTISRDNAKNTVYLQMNSLKPEDTAVYYCAAYYYYSAYGDDYWGQGTQVTVSS | high polyreactivity
8 | QVQLVESGGGLVQAGGSLRLSCAASGRIFHGYAMGWYRQAPGKESELVAAISSGGRTNYADSVKGRFTISRDNAKYTVYLQMNSLKPEDTAVYYCAAPVLTSDYTLDSYYWGQGTQVTVSS | high polyreactivity
9 | QVQLVESGGCLVQAGGSLRLSCAASGSIFAAYTMGWYRQAPGKERELVAAISVSTVSTYYADSVKGRFTISRDNAKNTVYLQMNSLKPEDTAVYYCNADATDSYPEKDEHDSWGQGTQVTVSS | low polyreactivity
10 | QVQLVESRGGLVQAGGSLRLSCAASGSTFYRYAMAWYRQAPGKERELVARINTGGSTSYADSVKGRFTISRDNAKNTVYLQMNILKPEDTAVYYCAASSRYAVFGRYYYCGQGTQVTVSS | high polyreactivity
11 | QVQLVESGGGLVQAGCSLRLSCAASGSIFAPYAMGWYRQAPGKERELVAAISYSGGSTYYADSVKGRLTISRDNAKNTVYLQMNSLKPEDTAVYYCAARVLHQDFYKRYYWGQGTQVTVSS | high polyreactivity
12 | QVQLVESGGGLVQAGGSLRLSCSASGYIYQYNSMGWYRQAPGKERELVAANSRGGRTNYADSVKGRFTISRDNAKNTVYLQMNSLKPEDTEVYYCAAKRPWGYYPWSTQTGDYWGQGTQVTVSS | high polyreactivity
13 | QVQLVESGGGLVQAGGSLRLSCAASGRIFVGYAMGWYRQAPGKERELVAAITGSGGGTYYADSVKGRFTISRDNAKNTVYLQMNSLKPEDTAVYYCAATGYLKVRGYYAWHFYYWGQGTQVTVSS | high polyreactivity
14 | QVQLVESGGGLVQAGGSLRLSCAASGRIFKVYAMGWYRQAPGKERELVAAITWSGVSTYADSVKGRFTISRDNAKNTVYLQMNSLKPEDTAVYYCAAYLRSPGDRQGYYYWGQGTQVTVSS | high polyreactivity
15 | QVQLVESGGGLVQAGGSLRLSCAASGFTFNSYAMGWYRQAPGKERELVAAISSSGGRTYYADSVKGRFTISRDNAKNTVYFQMNSLKPEDTAVYYCNAVLVSYYSVGYDYWGQGSQVTVSS | high polyreactivity
16 | QVQLVESGGGLVQAGGSLRLSCAASGFTFTYYAMGWYRQAPGKERELVATISSGGSTYYADSVKGRFTISRDNAKNTVYLQMNSLKPEDTAVYYCAAERGAITPLVYPPEFDYWGHGTQVTVSS | low polyreactivity
17 | QVQLVESGGGLVQAGGSLRLSCAASGSIFGTYTMGWYRQAPGKERELVAAISRSGTSTYYADSVKGRFTISRDNAKNTVYLQMNSLKPEDTAVYYCAASPDPYWRRMDYWGQGTQVTVSS | high polyreactivity
18 | QVQLVETGGGLVQAGGSLRLSCAASGRISQNAMGWYRQAPGKERELVAAITFSGGSTYYADSVKGRFTISRDNAKNTVYIQMNSLKAEDTAVYYCNVRQYTDGMKYDYWGQGTQVTVSA | low polyreactivity
19 | QFQLVESGGGLVQAGGSLRLSCAASGSTFIYYTMGWYRQAPGKERELVAAIPSSGGSTYYADSVKGRFTISRDNAKNTVYFQMNSLKPEDTAVYYCAADGTYIKFAKLYRRYDYWGQGTQVTVSS | low polyreactivity
20 | QVQLVESGGGLVQAGGSLRLSCAASGRTFSYNAMGWYRQAPGTERELVAAISGGGSTDYADSVKGRFTISRDNAKNTVYLQMNSLKPEDTAVYYCAAGWYVYTFFEFYVFDGDYWGQGTQVTVSS | low polyreactivity

Row | Sequence | polyreactivity (PSR sort gate)
21 | QVQLVESGGGLVQAGGSLRLSCAASGYTFSYNTMGWYRQAPGKERELVAAIRLSGGSTYYADSVKGRFTSSRDNAKNTVYLQMNSLKPEDTAVYYCAARQIITKFYTSNGVSYYYWGQGTQETVSS | high polyreactivity
22 | QVQLVESGGGLVQAGGSLRLSCAASGITIFGYAMGWYRQAPGKERELVAAINYSGDSTYYADSVKGRFTISRDNAKNTVYLQMNSVKPEDTAVYYCAATRSYRQPGPKYKSYYYLYYYWGQGTQVTVSS | high polyreactivity
23 | QVQLVESGGGLVPAGGSLRLSCAASGLTFYYYAMGWSRQAPGKERELVAGISGSDGSTYYADSVKGRFTISRDNAKNTVYLQMNSLKPEDTAVYYFAAEYYYPWPLYYITDGIYDMYYWGQGTQVTVSS | low polyreactivity
24 | QVQLVESVLGLVQAGGSLRFSCAASGSTIVRYAMVWYRPAPGKERELVAAISSSGATTYYADSVKGRFTISRDNAKNTVYLQMNSLKPEYTAVYYCDKYCRATRGLDNYWGQGTQVTVSS | high polyreactivity
25 | QVHLVESGGGLVQAGGSLLLSCAASGSTQLGNAMGWYRQAPGKERELVAAISTSGDSTNYADSVKGRFTISRDNAKNTVYLEMNSLKPEDTAVYYCNAGGYLNSDVDRVGYWGQGTQVTVSS | low polyreactivity
26 | QVQLVESGGGLVQAGGSLRLSCAASGRTFATYAMGWYRQAPGKERELVAAISNSGGRTNYADSVKGRFTISRDNAKNTVYLQMNSLKPEDTAVYYCAAAKRYYSEMYWGQGTQVTVSS | high polyreactivity
27 | QVQLVESGGGLVQAGGSLRLSCAASGSIFSHNAMGWYRQAPGKERELVASMTGSGGSTYYADSVKGRFTISRDNAKNTVYLHMNSLKPEDTAVYYCAADSYGRSETEDDYWGQGTQVTVSS | low polyreactivity
28 | QVQIVESGGGLVQAGGSLRLSCAASGYIFIVYTMGWYRQAPGKERELVAAISSGGITDYADSVKGRFTLSRDNAKNTLYIQMTRLKPEDTAVYYWGQGTQVTVSS | low polyreactivity
29 | QVQLVESGGGLVQAGGSLRLSCAASGRTFAYYAMGWYRQAPGTERELVAAISYSGARTYYADSVKGRFTISRDNAKNTVYLQMNSLKPEDTAVYYCAKSRGYPYTDYNYWGQGTQVTVSS | high polyreactivity
30 | QVQLVESGGGLVQAGGSLRLSCAASGFIFQYYAMGWYRQAPGKERELVAAISFSGGSTYYADSVKGRFTISRANAKNTVYLPMNSLKPEDTAVYYCAAEVYSGGDYSGHDYYWGQGTQVTVSS | low polyreactivity
31 | QVQLVESGGGLVQAGGSLRLSCAASGRIFGPYTKGWYRQAPGKERELVATISYSGSTTYYADSVKGRFTISRDNAKNTVYLQMNSLKPEDTAVYYCAAYYWARRDWGQGTQVTVSS | high polyreactivity
32 | QVQLVESGGGLVQAGGSLRLSCAASGSTFNDYAMGWYRQAPGNERELVAGITWRGTSTYYADSVKGRFTISRDNAKNTVYLQMNSLKPEDTAVYYCNADHVYGGYQYDFDYWGQGTQVTVSS | low polyreactivity
33 | QVQLVESGGGLVQAGGSLRLSCAASGSIFGTYTMGWYRQAPGKERELVASISRRGGSTYYADSVKGRFTISRDNAKNTVYLQMNSLKPEDTAVYYCAKPVYYLPGEYDYWGQGTQVTVSS | high polyreactivity
34 | QVQLVESGGGLVQAGGSLRLSCAASGFTFYHYAMGWYRQAPGKERELVAAIDNGGSTYADSVKGRFTISRDNAKNTVYLQMNSLKPEDTAVYYCAAVYLRYINGFYYWGQGTQVTVSS | low polyreactivity
35 | QVQLVDSGGGLVQAGGSLRLSCAASGYIFSANAMGWYRQAPGKERELVAVISWNGDGTYYADSVKGRFTISRDNAKNTVYLQMNSLKAEDTAVYYCAALSYAYRSQSRRYGYRFDYWGQGTQVTVSS | high polyreactivity
36 | QVQLVESGGGLVQAGGNLRLSCAASGNIFYVYAMGWYRQAPGKERELVAAITRSGGRTYYADSVKGRFTISRDNAKNTVYLQMNSLKPEETAVYYCAADRGVTRQKMDYWGQGTQVTVSS | low polyreactivity
37 | QVQLVESGGGLVQAGGSLRLSCAASGSIFSEYAMGWYRQAPGKERELVAAISKSTGRTYYADSVKGRFTISRDNAKNTVYLQMNSLKPEDTAVYYCNAVRRAFIASYDYWGQGTQVTVSS | high polyreactivity
38 | QVQLVESGGGLVQAGGSLRLSCAASGRIFYAYAMGWYRQAPGKERELVAGITYSGSSTYYADSVKGRFTISRDNAKNTVYLQMNSLKPEDTAVYYCAADLTRVLRYNYWGQGTQVSVSS | low polyreactivity
39 | QVQLVESGGGLVQAGGSLRLSCAASGSTFLINAMGWYRQAPGKERELVAAISRDGSTNYADSVKGRFTISRDNAKNTVYLQMNSLKPEDTAVYYCAAVPGISVGRQPGYDYDYWGQGTQVTVSS | low polyreactivity
40 | QVQLVESGGGLVQAGGSLRISCAASGSIFSDNGMGWYRQAPGKERELVAAITIGGSTNYADSVKGRFTISRDNAKNTVYLLMKRLNPEDTAVYYCNTDFFYYGYNFPYFDYDYWGQGTQVTVSA | low polyreactivity
